# Reference: article PMC6786869
# How the values were obtained:
# [1] = target: Als1p with the V326N mutation, V5-tagged, displayed on the surface of S. cerevisiae cells (Candida albicans) (UniProt Q5A8T4); experiment: single-cell force spectroscopy (AFM); one live yeast cell on a polydopamine-coated tipless cantilever brought repeatedly into contact with another cell on a hydrophobic substrate; PBS, 20 C; 500 adhesion-rupture trials per cell pair
# [2] = target: Wild-type Als1p (Candida albicans cell adhesion protein Als1p), V5-tagged, displayed on the surface of S. cerevisiae cells (Candida albicans) (UniProt Q5A8T4); experiment: as above
Substance,% of cell pairs binding [1],mean maximum rupture force per pair [1],mean rupture force [1],% of cell pairs binding [2],mean maximum rupture force per pair [2],mean rupture force [2]
"Wild-type Als1p (Candida albicans cell adhesion protein Als1p), V5-tagged, displayed on the surface of S. cerevisiae cells (from UniProt Q5A8T4 18-1238) (natural protein)",33%,953 pN,483 pN,97%,3330 pN,1510 pN
"Als1p with the V326N mutation, V5-tagged, displayed on the surface of S. cerevisiae cells (from UniProt Q5A8T4 18-1238) (natural protein)",7%,667 pN,517 pN,,,
